Assay results: patent US20050153894A1, “p21 peptides” (Cyclacel Limited, priority 1999, published 2005)
Square brackets hold non-standard residues; d marks the D form. Ends that are not written are not given here. Phg = N[C@H](C(=O)O)c1ccccc1; Tle = CC(C)(C)[C@H](N)C(=O)O; Nle = CCCC[C@H](N)C(=O)O; Nva = CCC[C@H](N)C(=O)O

How the values were obtained:
Cyclin D1 = biological target: T1, Cyclin D1 (Homo sapiens, UniProt P24385); experiment: Competitive Cyclin D1 binding assay (ELISA), immobilised biotinylated p21 (149-159); conditions: for IC50: immobilised p21 (149-159) peptide
T1 construct: made in house
T1 sequence (P24385 whole entry): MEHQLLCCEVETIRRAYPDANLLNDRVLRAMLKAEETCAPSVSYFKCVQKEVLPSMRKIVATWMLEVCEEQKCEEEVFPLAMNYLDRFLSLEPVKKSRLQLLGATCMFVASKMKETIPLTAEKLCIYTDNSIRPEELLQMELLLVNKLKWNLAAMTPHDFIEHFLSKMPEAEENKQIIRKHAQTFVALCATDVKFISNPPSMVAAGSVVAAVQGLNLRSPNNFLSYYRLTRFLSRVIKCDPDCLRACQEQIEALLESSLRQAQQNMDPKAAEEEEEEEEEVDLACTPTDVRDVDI
Text: The amount of bound Cyclin D1/Cyclin A was immunodetected and quantified by Turbo-ELISA reagent (PIERCE).
The next important question was if these peptides share the same kinase inhibitory mechanism (bind to the same Cyclin docking site).

CDK2/Cyclin E = biological target: T2, CDK2/Cyclin E (Homo sapiens, UniProt P24864); experiment: CDK2/Cyclin E kinase assay, phosphorylation of GST-Rb; format: biochemical; conditions: phosphorylation of pRb
T2 construct: 6xHis; made in house; host or cells: Sf9 insect cells (baculovirus co-expression)
Description: (§1) The phosphorylation reaction mixture (total volume 40 μl) consisted of 50 mM HEPES pH 7.4, 20 mM MgCl2, 5 mM EGTA, 2 mM DTT, 20 mM β-glycerophosphate, 2 mM NaF, 1 mM Na3VO4, Protease Inhibitors Cocktail (Sigma, see above), BSA 0.5 mg/ml, 1 μg purified enzyme complex, 10 μl of GST-Rb-Sepharose beads, 100 μM ATP, 0.2 μCi ^32P-ATP. The reaction was carried out for 30 min at 30° C. at constant shaking. At the end of this period 100 μl of 50 mM HEPES, pH 7.4 and 1 mM ATP were added to each well and the total volume was transferred onto GFC filtered plate. The plate was washed 5 times with 200 μl of 50 mM HEPES, pH 7.4 and 1 mM ATP. To each well were added 50 μl scintillant liquid and the radioactivity of the samples was measured on Scintilation counter (Topcount, HP). The IC50 values of different peptides were calculated using GraFit software.

CDK4/Cyclin D1 = biological target: T3, CDK4/Cyclin D1 (Homo sapiens, UniProt P24385); experiment: CDK4/Cyclin D1 kinase assay, phosphorylation of GST-Rb; format: biochemical
T3 construct: made in house; host or cells: CDK4: Sf9 insect cells (baculovirus)
T3 sequence (P24385 whole entry): as above
T3 sequence (P11802 whole entry partner): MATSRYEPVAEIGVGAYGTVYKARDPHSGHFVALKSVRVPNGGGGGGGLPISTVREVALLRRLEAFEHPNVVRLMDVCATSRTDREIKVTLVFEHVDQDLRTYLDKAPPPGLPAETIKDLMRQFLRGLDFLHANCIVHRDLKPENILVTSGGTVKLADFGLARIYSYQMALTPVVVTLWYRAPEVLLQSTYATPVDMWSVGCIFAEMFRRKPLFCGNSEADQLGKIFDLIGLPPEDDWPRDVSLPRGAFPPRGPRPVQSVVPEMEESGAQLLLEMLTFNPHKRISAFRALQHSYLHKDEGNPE
Description: as §1
Peptides were synthesized as described above. Cyclin D1 was expressed in E coli BL21(DE3) using PET expression vector and purified from the inclusion bodies. After refolding Cyclin D1 was cross-linked on SulfoLink agarose support (PIERCE). CDK4-6×His was expressed in Sf9 insect cells infected with the appropriate baculovirus construct and purified by metal-affinity chromatography (Quiagen). […] CDK4/Cyclin D1 phosphorilation of Rb was determined by incorporation of radio-labeled phosphate in GST-Rb in 96-well format kinase assay. […] The reaction was carried out for 30 min at 30 C at constant shaking. The GST-Rb-Sepharose beads were washed with 50 mM HEPES and 1 mM ATP and the radioactivity was measured on Scintillation counter (Topcount, HP)

Cyclin A = Cyclin A (Homo sapiens, UniProt P20248); experiment: Cyclin A binding assay, immobilised biotinyl-Ahx-[…]NH2; conditions: relative to H-His-Ala-Lys-Arg-Arg-Leu-Ile-Phe-NH2 (=1)
Sequence of Cyclin A (P20248 whole entry): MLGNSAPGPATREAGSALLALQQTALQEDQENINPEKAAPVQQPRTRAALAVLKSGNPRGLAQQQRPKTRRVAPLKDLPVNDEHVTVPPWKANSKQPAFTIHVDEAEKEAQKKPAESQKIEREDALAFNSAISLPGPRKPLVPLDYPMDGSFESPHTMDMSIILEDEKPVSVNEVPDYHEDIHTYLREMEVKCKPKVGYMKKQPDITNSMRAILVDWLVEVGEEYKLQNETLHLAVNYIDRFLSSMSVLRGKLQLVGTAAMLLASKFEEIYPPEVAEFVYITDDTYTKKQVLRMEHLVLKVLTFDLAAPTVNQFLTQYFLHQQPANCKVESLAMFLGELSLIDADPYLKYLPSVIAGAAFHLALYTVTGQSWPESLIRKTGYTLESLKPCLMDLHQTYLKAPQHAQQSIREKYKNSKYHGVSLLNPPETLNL
Description: This was added to each well (100 μL). The plate was incubated for 1 h at room temperature with constant shaking. The plate was washed once quickly with TBS/BSA buffer (200 μL), followed by three more washes with TBS/BSA buffer (200 μL) for 5 min each. Serial dilutions of test peptides were prepared in a new plate (50 μL in each well). Cyclin A was diluted to 5 μg/50 μL with TBS/BSA buffer and this was then added to each well (50 μL). The solutions were mixed thoroughly with a pipette (5-6 times), before being incubated for 30 min at room temperature. This reaction mixture was then transferred to the biotinylated peptide: streptavidin-coated plate and incubated for 1 h at room temperature with constant shaking. The plate was washed once quickly with TBS/BSA buffer (200 μL), followed by three more washes with TBS/BSA buffer (200 μL) for 5 min each. The cyclin A antibody (Santa Cruz polyclonal) solution was diluted 1:200 with TBS/BSA buffer and this was then added to each well of the plate (100 μL. The plate was incubated for 1 h at room temperature with constant shaking. The plate was washed once quickly with TBS/BSA buffer (200 μl), followed by three more washes with TBS/BSA buffer (200 μL) for 5 min each. The anti-rabbit secondary antibody (goat anti-rabbit IgG peroxidase conjugate) was diluted 1:10,000 with TBS/BSA and this was then added to each well of the plate (100 μL). The plate was incubated for 1 h at room temperature with constant shaking. The plate was washed once quickly with TBS/BSA buffer (200 μL), followed by three more washes with TBS/BSA buffer (200 μL) for 5 min each. To each well was added the TMB-ELISA reagent (Pierce 1-Step™ Turbo TMB-ELISA; 100 μL) and the plate incubated for 1 min with constant shaking. The reaction was then quenched by the addition of 2 M aqueous H2SO4 (100 μL, each well). The UV absorbance of the each solution was measured spectrophotometrically at 450 nm. IC50 values were calculated from dose-response curves.

CDK2/cyclin A = CDK2/cyclin A (Homo sapiens, UniProt P20248); experiment: CDK2/cyclin A kinase assay, substrate pRb(773-928); format: biochemical; conditions: relative to H-His-Ala-Lys-Arg-Arg-Leu-Ile-Phe-NH2 (=1), pRb substrate, [ATP] = 100 μM
Text: Reactions were stopped on ice, followed by filtration through p81 filterplates (Whatman Polyfiltronics, Kent, UK).

## CC(C)C[C@H](NC(=O)[C@H](CC(=O)O)NC(=O)[C@H](CC(C)C)NC(=O)[C@H](CCCNC(=N)N)NC(=O)[C@H](CCCNC(=N)N)NC(=O)[C@H](CCCCN)NC(=O)[C@H](CO)NC(=O)[C@@H](N)Cc1c[nH]cn1)C(N)=O
Cyclin D1
  competition with Biotin-DFYHSKRRLIF for binding to Cyclin D1, in words: not able
  IC50: > 200 µM
CDK2/Cyclin E
  Kinase Inhibition Cyclin E/CDK2 % Inhibition: 74%
CDK4/Cyclin D1
  inhibition of CDK4/Cyclin D1 phosphorylation of GST-Rb, in words: not able to inhibit
CDK4/Cyclin D1; phosphorylation of pRb
  Kinase Inhibition Cyclin D1/CDK4 % Inhibition: 24%

## CC(C)C[C@H](NC(=O)[C@H](CCCNC(=N)N)NC(=O)[C@H](CCCNC(=N)N)NC(=O)[C@H](CCCCN)NC(=O)[C@H](CO)NC(=O)[C@@H](N)Cc1c[nH]cn1)C(=O)N[C@@H](Cc1ccccc1)C(=O)NCC(N)=O
Cyclin D1
  IC50: > 200 µM

## CC[C@H](NC(=O)[C@H](C)NC(=O)[C@@H](N)CO)C(=O)N[C@@H](CCCNC(=N)N)C(=O)N[C@@H](CC(N)=O)C(=O)N[C@@H](CC(C)C)C(=O)N[C@@H](Cc1ccccc1)C(=O)NCC(N)=O [SEQ ID NO. 41, H-Ser-Ala-Abu-Arg-Asn-Leu-Phe-Gly-NH2]
Cyclin D1
  IC50: > 200 µM

## H-HAKRRLIF-NH2
Cyclin D1
  IC50: 13 µM

## H-His-Ala-Lys-Nle-Arg-Leu-Ile Phe-NH2 (H-HAKHRLIF-NH2; not fully specified (residue 4); printed as H-His-Ala-Lys-Nle-Arg-Leu-Ile Phe-NH2)
Cyclin A; Arg155 substitutions
  Relative activity Cyclin A Binding: <0.1
CDK2/cyclin A; Arg155 substitutions
  Relative activity Kinase Inhibition: <0.1

## H-His-Ala-Nle-Arg-Arg-Leu-Ile Phe-NH2 (H-HA[Nle]RRLIF-NH2; SMILES CCCC[C@H](NC(=O)[C@H](C)NC(=O)[C@@H](N)Cc1c[nH]cn1)C(=O)N[C@@H](CCCNC(=N)N)C(=O)N[C@@H](CCCNC(=N)N)C(=O)N[C@@H](CC(C)C)C(=O)N[C@H](C(=O)N[C@@H](Cc1ccccc1)C(N)=O)[C@@H](C)CC)
Cyclin A; Lys154 substitutions
  Relative activity Cyclin A Binding: 0.2
CDK2/cyclin A; Lys154 substitutions
  Relative activity Kinase Inhibition: 03

## H-His-Bug-Lys-Arg-Arg-Leu-Ile Phe-NH2 (H-H[Tle]KRRLIF-NH2; SMILES CC[C@H](C)[C@H](NC(=O)[C@H](CC(C)C)NC(=O)[C@H](CCCNC(=N)N)NC(=O)[C@H](CCCNC(=N)N)NC(=O)[C@H](CCCCN)NC(=O)[C@@H](NC(=O)[C@@H](N)Cc1c[nH]cn1)C(C)(C)C)C(=O)N[C@@H](Cc1ccccc1)C(N)=O)
Cyclin A; Ala153 substitutions
  Relative activity Cyclin A Binding: 1.2
CDK2/cyclin A; Ala153 substitutions
  Relative activity Kinase Inhibition: 0.2

## H-His-Gly-Lys-Arg-Arg-Leu-Ile Phe-NH2 (H-HGKRRLIF-NH2)
Cyclin A; Ala153 substitutions
  Relative activity Cyclin A Binding: 0.1
CDK2/cyclin A; Ala153 substitutions
  Relative activity Kinase Inhibition: 0.1

## H-His-Ile-Lys-Arg-Arg-Leu-Ile Phe-NH2 (H-HIKRRLIF-NH2)
Cyclin A; Ala153 substitutions
  Relative activity Cyclin A Binding: 0.2
CDK2/cyclin A; Ala153 substitutions
  Relative activity Kinase Inhibition: 0.5

## H-His-Nva-Lys-Arg-Arg.Leu-Ile Phe.NH2 (H-H[Nva]KRRLIF-NH2; SMILES CCC[C@H](NC(=O)[C@@H](N)Cc1c[nH]cn1)C(=O)N[C@@H](CCCCN)C(=O)N[C@@H](CCCNC(=N)N)C(=O)N[C@@H](CCCNC(=N)N)C(=O)N[C@@H](CC(C)C)C(=O)N[C@H](C(=O)N[C@@H](Cc1ccccc1)C(N)=O)[C@@H](C)CC)
Cyclin A; Ala153 substitutions
  Relative activity Cyclin A Binding: <0.1
CDK2/cyclin A; Ala153 substitutions
  Relative activity Kinase Inhibition: <0.1

## H-His-Phe-Lys-Arg-Arg-Leu-Ile Phe-NH2 (H-HFKRRLIF-NH2)
Cyclin A; Ala153 substitutions
  Relative activity Cyclin A Binding: 0.2
CDK2/cyclin A; Ala153 substitutions
  Relative activity Kinase Inhibition: 0.5

## H-His-Phg-Lys-Arg-Arg-Leu-Ile Phe-NH2 (H-H[Phg]KRRLIF-NH2; not fully specified; printed as H-His-Phg-Lys-Arg-Arg-Leu-Ile Phe-NH2)
Cyclin A; Ala153 substitutions
  Relative activity Cyclin A Binding: <0.1
CDK2/cyclin A; Ala153 substitutions
  Relative activity Kinase Inhibition: <0.1

## H-His-Val-Lys-Arg-Arg-Leu-Ile Phe-NH2 (H-HVKRRLIF-NH2)
Cyclin A; Ala153 substitutions
  Relative activity Cyclin A Binding: 1.7
CDK2/cyclin A; Ala153 substitutions
  Relative activity Kinase Inhibition: 2

## H-Hse-Ala-Lys-Arg-Arg-Leu-Ile Phe-NH2 (XAKRRLIF; N-terminal Hse, C-terminal amide)
Cyclin A; His152 substitutions
  Relative activity Cyclin A Binding: 2
CDK2/cyclin A; His152 substitutions
  Relative activity Kinase Inhibition: 2

## H-Phe-Ala-Lys-Arg-Arg-Leu.Ile Phe-NH2 (H-FAKRRLIF-NH2)
Cyclin A; His152 substitutions
  Relative activity Cyclin A Binding: 1
CDK2/cyclin A; His152 substitutions
  Relative activity Kinase Inhibition: 3

## H-Pya-Ala-Lys-Arg-Arg-Leu-Ile Phe-NH2 (XAKRRLIF; N-terminal Pya, C-terminal amide)
Cyclin A; His152 substitutions
  Relative activity Cyclin A Binding: 0.2
CDK2/cyclin A; His152 substitutions
  Relative activity Kinase Inhibition: <0.1

## H-Thi-Ala-Lys-Arg-Arg-Leu-Ile Phe-NH2 (XAKRRLIF; N-terminal Thi, C-terminal amide)
Cyclin A; His152 substitutions
  Relative activity Cyclin A Binding: 0.2
CDK2/cyclin A; His152 substitutions
  Relative activity Kinase Inhibition: 2

## HAKRRLAF-NH2
Cyclin A; Ile158 substitutions
  Relative activity Cyclin A Binding: 0.8
CDK2/cyclin A; Ile158 substitutions
  Relative activity Kinase Inhibition: 0.3

## HAKRRLF-NH2 [H-His-Ala-Lys-Arg-Arg-Leu-Phe-NH2]
Cyclin A; Ile158 substitutions
  Relative activity Cyclin A Binding: <0.1
CDK2/cyclin A; Ile158 substitutions
  Relative activity Kinase Inhibition: <0.1

## HAKRRLFF-NH2
Cyclin A; Ile158 substitutions
  Relative activity Cyclin A Binding: 0.4
CDK2/cyclin A; Ile158 substitutions
  Relative activity Kinase Inhibition: 0.4

## HAKRRLIK-NH2
Cyclin A; Phe159 substitutions
  Relative activity Cyclin A Binding: <0.1
CDK2/cyclin A; Phe159 substitutions
  Relative activity Kinase Inhibition: <0.1

## HAKRRLIL-NH2
Cyclin A; Phe159 substitutions
  Relative activity Cyclin A Binding: <0.1
CDK2/cyclin A; Phe159 substitutions
  Relative activity Kinase Inhibition: 0.3

## HAKRRLIW-NH2
Cyclin A; Phe159 substitutions
  Relative activity Cyclin A Binding: 0.1
CDK2/cyclin A; Phe159 substitutions
  Relative activity Kinase Inhibition: 0.3

## HAKRRLIY-NH2
Cyclin A; Phe159 substitutions
  Relative activity Cyclin A Binding: 0.2
CDK2/cyclin A; Phe159 substitutions
  Relative activity Kinase Inhibition: 0.3

## HAKRRLLF-NH2
Cyclin A; Ile158 substitutions
  Relative activity Cyclin A Binding: 0.6
CDK2/cyclin A; Ile158 substitutions
  Relative activity Kinase Inhibition: 1.2
